Experimental data: the Immune Epitope Database (IEDB)

Columns and labels:
Assay in all cases: IEDB peptide-MHC binding, purified MHC/competitive/radioactivity; filed as Kd, often an IC50 or EC50 that approximates it; ≥ and ≤ were set here for values at or beyond the usual limits of such assays
HLA-A*31:01 = target: HLA-A*31:01
HLA-A*11:01 = target: HLA-A*11:01
HLA-A*33:01 = target: HLA-A*33:01
HLA-A*68:01 = target: HLA-A*68:01
HLA-A*03:01 = target: HLA-A*03:01
[1] = source organism: Vaccinia virus WR
[2] = source organism: Dengue virus 4 Philippines/H241/1956
[3] = source organism: SARS coronavirus Tor2
[4] = source organism: Dengue virus 1 Singapore/S275/1990
[5] = source organism: Mammarenavirus brazilense

Row | Sequence | Kd (HLA-A*31:01; [1]) | Kd (HLA-A*11:01; [1]) | Kd (HLA-A*33:01; [1]) | Kd (HLA-A*68:01; [1]) | Kd (HLA-A*03:01; [1]) | other results
1 | LMHPDFCKNR | 16.9 nM | ≥ 24500 nM | 254 nM | 8450 nM | 13600 nM | 
2 | LMTLMKGASK |  |  |  |  |  | Kd (HLA-A*03:01; [2]): 273 nM
3 | LQGPPGTGK |  |  |  |  |  | Kd (HLA-A*31:01; [3]): 1260 nM; Kd (HLA-A*11:01; [3]): 40.1 nM; Kd (HLA-A*33:01; [3]): ≥ 77700 nM; Kd (HLA-A*68:01; [3]): 10900 nM; Kd (HLA-A*03:01; [3]): 459 nM
4 | LQMAGVEVR | 218 nM | 5760 nM | 6150 nM | 2380 nM | 13900 nM | 
5 | LTLFVEECLR |  |  |  |  |  | Kd (HLA-A*33:01; [2]): 60.7 nM; Kd (HLA-A*68:01; [2]): 56.2 nM
6 | MKNKAWMVHR |  |  |  |  |  | Kd (HLA-A*31:01; source organism: Dengue virus 3 Martinique/1243/1999): 140 nM
7 | MLDTSEKYSK | ≥ 22300 nM | 107 nM | ≥ 70000 nM | 4320 nM | 17300 nM | 
8 | MLVYCFLGY |  |  |  |  |  | Kd (HLA-A*31:01; [3]): 907 nM; Kd (HLA-A*11:01; [3]): 120 nM; Kd (HLA-A*33:01; [3]): 7380 nM; Kd (HLA-A*68:01; [3]): 1140 nM; Kd (HLA-A*03:01; [3]): 136 nM
9 | MSHLKVALYR | 2.25 nM | 100 nM | 66.5 nM | 31.2 nM | 609 nM | 
10 | MSTYGWNLVR |  |  |  |  |  | Kd (HLA-A*68:01; source organism: Dengue virus 2 Jamaica/1409/1983): 24.9 nM
11 | MVDVSMMSMY | ≥ 23900 nM | 2040 nM | ≥ 30600 nM | 148 nM | 2330 nM | 
12 | NAILHNIYR | 5.17 nM | 1360 nM | 1.82 nM | 0.565 nM | ≥ 36100 nM | 
13 | NIISRTRLY | 3910 nM | 1020 nM | 10200 nM | 879 nM | 375 nM | 
14 | NLKSLLLENK | 1060 nM | 63.4 nM | 2160 nM | 137 nM | 88.8 nM | 
15 | NMKPNFWSR | 0.349 nM | ≥ 34700 nM | 1.06 nM | 208 nM | ≥ 78000 nM | 
16 | NMLNIMNRR |  |  |  |  |  | Kd (HLA-A*31:01; [4]): 5350 nM; Kd (HLA-A*33:01; [4]): 13.3 nM
17 | NVKHTSVSAK | 10300 nM | 3350 nM | 8280 nM | 502 nM | 519 nM | 
18 | QFNQMMNPSH |  |  |  |  |  | Kd (HLA-A*31:01; [5]): ≥ 20200 nM; Kd (HLA-A*11:01; [5]): ≥ 69700 nM; Kd (HLA-A*33:01; [5]): ≥ 70000 nM; Kd (HLA-A*68:01; [5]): ≥ 70100 nM; Kd (HLA-A*03:01; [5]): ≥ 70000 nM
19 | QLLMPLKAPK |  |  |  |  |  | Kd (HLA-A*31:01; [3]): 134 nM; Kd (HLA-A*11:01; [3]): 146 nM; Kd (HLA-A*33:01; [3]): 2290 nM; Kd (HLA-A*68:01; [3]): 1530 nM; Kd (HLA-A*03:01; [3]): 100 nM
20 | QMRTPLHKY | 7830 nM | 1760 nM | ≥ 77700 nM | ≥ 77700 nM | 141 nM | 
